According to patent US20150309012A1 (BAXTER INTERNATIONAL, published 2015):

How the values were obtained:
Assay in all cases: cell-based or functional assay
[1] = molecular target: T1, oxMIF on the cell surface of U937 human monocytic cells (human, UniProt P14174 2-115, oxidised isoform (oxMIF); residues not stated)
[2] = molecular target: T1, oxMIF on the cell surface of U937 human …; remark: listed apart in the source
[3] = molecular target: T1, oxMIF on the cell surface of U937 human …; remark: listed apart in the source

T1 sequence (P14174 2-115): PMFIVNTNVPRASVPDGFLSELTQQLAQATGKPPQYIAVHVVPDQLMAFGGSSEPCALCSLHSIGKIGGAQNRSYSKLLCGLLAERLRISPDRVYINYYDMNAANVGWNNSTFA

B1: anti-oxMIF antibody RAM9 (antibody, human IgG1, kappa, V domains shown)
VH: EVQLLESGGGLVQPGGSLRLSCAASGFTFSIYSMNWVRQAPGKGLEWVSSIGSSGGTTYYADSVKGRFTISRDNSKNTLYLQMNSLRAEDTAVYYCAGSQWLYGMDVWGQGTTVTVSS
VL: DIQMTQSPSSLSASVGDRVTITCRSSQRIMTYLNWYQQKPGKAPKLLIFVASHSQSGVPSRFRGSGSETDFTLTISGLQPEDSATYYCQQSFWTPLTFGGGTKVEIKR
What does the source list for B1?
IC50 of inhibition of random migration (chemokinesis) of U937 cells, Transwell, antibody in lower chamber; 25 experiments (38 plates) [1]: 0.8 nM; IC50 of inhibition of random migration (chemokinesis) of U937 cells, Transwell, antibody in lower chamber; duplicate plates (26 plates from 13 experiments) [1]: 0.8 nM; IC 50 of migration inhibition of U937 cells, antibody in the inserts (upper chamber), plate 2 [2]: 1.1 nM; IC50 (inhibition of cell migration, chemokinesis assay, MI against log RAM9) [3]: 0.8 nM
